The values below come from patent publication US11555055B2, “Peptide inhibitors of insulin-degrading enzyme” (The Regents of the University of California, priority 2017, dated 2023).

Where a SMILES comes first, the peptide text is derived from it. Bridges are numbered along the chain shown (N, C = ends). Where no end group is shown, it is not given here. Some results are limits rather than exact numbers.

Assay [1] concerns multiple matrix-metalloproteases (MMPs). The assay is described as follows: Matrix Metalloproteinase (MMP) Inhibitor Profiling Kit, positive control. It counts as biochemical. Conditions: P<0.01. On the procedure: FIG. 8A-B. Selectivity of P12-3A for IDE vis-à-vis other proteases. Activity of P12-3A (100 μM) against (A) multiple matrix-metalloproteases (MMPs) and (B) multiple peptidases of different protease classes. […] Data are mean±SEM, n=8-16 per group. P<0.05 by 2-tailed Student's t-test. […] See Experimental Procedures for details. NEP, neprilysin; mCatD, murine cathepsin D; hCatD, human cathepsin D.
Degradation Assays—IDE activity was quantified by monitoring the degradation of (7-methoxycoumarin-4-yl)acetic acid-[…](2,4-dinitrophenyl) (FRET1, 5 μM) (49,55), fluoresceinated and biotinylated amyloid β-protein (FAβB; 500 nM) or recombinant human insulin (50 nM) in PBS supplemented with 0.05% BSA. FRET1 degradation was measured by changes in fluorescence (λex=340 nm, λem=420 nm); FAβB degradation was monitored by fluorescence polarization (λex=488 nm, λem=525 nm), as described (56); and insulin degradation was quantified by ELISA. In vitro activity assays incorporated recombinant human IDE (1 nM) purified from bacteria (35). For quantitation of insulin degradation in primary murine skin fibroblasts, cells (1×10^5/well) were plated in 96-well plates and maintained in DMEM supplemented with 10% fetal bovine serum (FBS), 2 mM glutamine, penicillin and streptomycin. […]

Assay [2] has as its target T1, IDE (Homo sapiens, UniProt P14735).
T1 construct: made in house; host or cells: bacteria
T1 sequence (P14735 1-1019): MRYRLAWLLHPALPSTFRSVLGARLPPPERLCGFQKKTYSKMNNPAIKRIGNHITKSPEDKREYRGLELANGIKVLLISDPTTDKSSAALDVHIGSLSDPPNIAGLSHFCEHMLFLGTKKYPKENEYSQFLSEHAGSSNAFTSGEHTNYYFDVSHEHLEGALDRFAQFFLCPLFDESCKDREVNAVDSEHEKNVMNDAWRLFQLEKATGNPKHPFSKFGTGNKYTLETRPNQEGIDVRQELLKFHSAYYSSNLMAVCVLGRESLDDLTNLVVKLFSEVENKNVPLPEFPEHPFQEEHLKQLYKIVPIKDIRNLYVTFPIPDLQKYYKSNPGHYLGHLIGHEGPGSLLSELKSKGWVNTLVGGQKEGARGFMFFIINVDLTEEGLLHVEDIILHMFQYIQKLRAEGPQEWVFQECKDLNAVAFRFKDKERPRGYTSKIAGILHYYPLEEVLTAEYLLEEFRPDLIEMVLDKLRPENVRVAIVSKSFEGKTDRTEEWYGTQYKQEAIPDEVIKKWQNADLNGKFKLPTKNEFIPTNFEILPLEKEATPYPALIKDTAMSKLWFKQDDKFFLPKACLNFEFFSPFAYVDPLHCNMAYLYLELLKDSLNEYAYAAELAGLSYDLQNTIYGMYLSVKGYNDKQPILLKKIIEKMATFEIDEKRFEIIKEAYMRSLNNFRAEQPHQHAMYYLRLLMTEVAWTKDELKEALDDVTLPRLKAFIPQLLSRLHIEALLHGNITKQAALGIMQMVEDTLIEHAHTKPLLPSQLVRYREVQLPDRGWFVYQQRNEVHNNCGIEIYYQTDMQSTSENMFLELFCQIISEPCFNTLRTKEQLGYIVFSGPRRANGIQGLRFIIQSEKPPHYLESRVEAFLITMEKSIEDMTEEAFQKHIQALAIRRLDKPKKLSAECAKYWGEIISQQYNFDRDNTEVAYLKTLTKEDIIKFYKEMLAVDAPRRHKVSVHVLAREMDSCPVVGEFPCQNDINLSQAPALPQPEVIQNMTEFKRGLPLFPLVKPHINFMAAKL
Description: IDE protease activity assay with FRET1 substrate. It counts as biochemical. The note with it: Ki converted from IC50 with the Cheng-Prusoff equation.

For assay [3], the target named is T1, IDE. The assay is described as follows: IDE protease activity assay, insulin degradation quantified by ELISA. The assay is classed as biochemical. Conditions: substrate recombinant human insulin; Ki converted from IC50 with the Cheng-Prusoff equation; read-out: Ki Insulin. As for the experimental part:
To assess the extent to which these peptide sequences inhibit IDE, we quantified their potency in protease activity assays using recombinant human IDE and two different substrates: FRET1, a fluorogenic peptide (45), and recombinant human insulin.
Degradation Assays—IDE activity was quantified by monitoring the degradation of (7-methoxycoumarin-4-yl)acetic acid-[…](2,4-dinitrophenyl) (FRET1, 5 μM) (49,55), fluoresceinated and biotinylated amyloid β-protein (FAβB; 500 nM) or recombinant human insulin (50 nM) in PBS supplemented with 0.05% BSA. FRET1 degradation was measured by changes in fluorescence (λex=340 nm, λem=420 nm); FAβB degradation was monitored by fluorescence polarization (λex=488 nm, λem=525 nm), as described (56); and insulin degradation was quantified by ELISA. In vitro activity assays incorporated recombinant human IDE (1 nM) purified from bacteria (35). For quantitation of insulin degradation in primary murine skin fibroblasts, cells (1×10^5/well) were plated in 96-well plates and maintained in DMEM supplemented with 10% fetal bovine serum (FBS), 2 mM glutamine, penicillin and streptomycin. After addition of insulin (10 nM or 100 nM), samples of conditioned medium were removed daily and quickly frozen, then insulin levels were quantified in parallel by ELISA according to manufacturer's recommendations (Crystal Chem, Downers Grove, Ill., USA). Assessment of the activity of P12-3A against a variety of matrix-metalloproteases was conducted using the Matrix Metalloproteinase (MMP) Inhibitor Profiling Kit, Fluorometric RED (Enzo Life Sciences, Inc., Farmingdale, N.Y., USA) according to manufacturer's recommendations using the broad-spectrum MMP inhibitor, NNGH, as a positive control.
For orientation: An ELISA detects its analyte on a solid surface through an enzyme-linked reagent.

The target in assay [4] is T2, recombinant human insulin-degrading enzyme (IDE) (human, UniProt P14735 42-1019, limits assumed).
T2 construct: Used at 1 nM in the in vitro activity assays; immobilised on plates for phage panning
T2 sequence (looked up): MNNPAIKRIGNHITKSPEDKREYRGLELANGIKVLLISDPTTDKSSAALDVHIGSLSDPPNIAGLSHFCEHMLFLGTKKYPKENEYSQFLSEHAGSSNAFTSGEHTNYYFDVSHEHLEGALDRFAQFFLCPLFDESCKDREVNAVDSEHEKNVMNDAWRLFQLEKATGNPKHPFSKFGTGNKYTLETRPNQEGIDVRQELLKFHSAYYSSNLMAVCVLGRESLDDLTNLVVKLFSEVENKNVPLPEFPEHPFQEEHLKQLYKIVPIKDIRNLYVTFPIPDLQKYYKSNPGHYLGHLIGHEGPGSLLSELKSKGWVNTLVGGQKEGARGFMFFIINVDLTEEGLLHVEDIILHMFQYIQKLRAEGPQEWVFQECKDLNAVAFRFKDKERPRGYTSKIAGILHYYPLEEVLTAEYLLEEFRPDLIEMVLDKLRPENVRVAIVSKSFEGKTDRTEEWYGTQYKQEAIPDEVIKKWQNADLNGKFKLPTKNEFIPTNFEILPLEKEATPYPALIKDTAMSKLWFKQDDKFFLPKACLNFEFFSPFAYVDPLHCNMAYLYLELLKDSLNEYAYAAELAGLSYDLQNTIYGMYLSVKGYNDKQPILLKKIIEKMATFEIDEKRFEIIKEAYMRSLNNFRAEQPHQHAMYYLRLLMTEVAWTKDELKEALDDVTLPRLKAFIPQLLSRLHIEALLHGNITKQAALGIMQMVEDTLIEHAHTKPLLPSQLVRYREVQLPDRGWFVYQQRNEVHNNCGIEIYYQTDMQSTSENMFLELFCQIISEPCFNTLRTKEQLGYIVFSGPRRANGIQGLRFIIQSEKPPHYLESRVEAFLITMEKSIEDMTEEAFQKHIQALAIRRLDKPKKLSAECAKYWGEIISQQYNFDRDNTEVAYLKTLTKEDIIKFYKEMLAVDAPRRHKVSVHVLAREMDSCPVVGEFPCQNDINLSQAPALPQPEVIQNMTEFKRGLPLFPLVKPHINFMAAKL
Description: IDE activity assay, FRET1 substrate; IC50 converted to Ki (Cheng-Prusoff).

Assay [5] concerns the target T2, recombinant human insulin-degrading …. Description: IDE activity assay, insulin substrate (ELISA); IC50 converted to Ki (Cheng-Prusoff).
Assay [6] shares this target. The assay is described as follows: FRET1 activity assay after 0 or 4 h pre-incubation of the peptide with IDE.
The target is the same in assay [7]. Description: IDE activity assay, FRET1 degradation.
Assay [8] shares this target. The assay is described as follows: IDE activity assay, FAβB degradation (fluorescence polarization). Background: Fluorescence polarisation rises when a labelled molecule tumbles more slowly, as on binding a larger partner.
For assay [9] the target is unchanged. Description: IDE activity assay, insulin substrate (ELISA).

As for `COc1ccc(S(=O)(=O)N(CC(=O)NO)CC(C)C)cc1` [NNGH], the “inhibition of MMPs by positive control” value in [1] is given as “significant inhibition”.

Turning to `CC[C@H](C)[C@H](NC(=O)[C@@H]1CCCN1C(=O)[C@H](CO)NC(=O)[C@@H](N)Cc1c[nH]c2ccccc12)C(=O)N[C@@H](CO)C(=O)NCC(=O)N[C@@H](CCCCN)C(=O)N[C@@H](Cc1ccccc1)C(=O)N[C@@H](Cc1ccccc1)C(=O)N[C@@H](CCC(N)=O)C(=O)N[C@@H](CCCNC(=N)N)C(=O)N[C@@H](Cc1ccccc1)C(=O)O` [Peptide P12-4] (H-WSPISGKFFQRF-OH), the Ki (in general, a measure of affinity in units of concentration, obtained from inhibition or displacement) at IDE [2] worked out at 3.9 ± 0.5 µM; on IDE [3], 1.5 ± 0.3 µM.

B1: P12-3 (peptide)
peptide: H-QSLPWCYPHCVT-OH
modifications: not fully specified; cysteine pairing not given here
notes: Two cysteines predicted to form a disulfide bond; not deliberately cyclized before testing
Consider B1, for which the values for the Ki in [4] and in assay [5] were 8.9 µM and 3.9 µM, respectively.

B2: P12-3A (QSLPWCYPHCVT-amide), as first synthesized, not deliberately cyclized (peptide)
peptide: H-QSLPWCYPHCVT-NH2
modifications: not fully specified; printed as QSLPWCYPHCVT-amide; cysteine pairing not given here
notes: also called C-terminally amidated variant of P12-3
As to B2, the “fold increase in potency at the 4-h time point relative to t=0” value in assay [6] was 1 fold.

B3: P12-3A, deliberately cyclized, highly pure cosmetic-grade version (peptide)
peptide: QSLPWCYPHCVT-NH2
modifications: disulfide 6-10 (inferred)
notes: also called cyclized P12-3A
In the case of B3, the values for the Ki in [7] and in assay [8] were 2.7 µM and 2.1 µM, respectively.

B4: P12-1C (peptide)
peptide: Ac-FRQWWQPS
notes: also called N-terminally truncated variant of P12-1
With B4, the figures for the Ki in [9] and in [4] were over 10 µM and 139 µM, respectively.
